Results from patent US6825035, “Compositions and methods for modulating expression within smooth muscle cells” (Setagon, Inc.).

Biological target: T1, Serum response factor (SRF) (UniProt D3ZHH8 D3ZHH8:1-504)
T1 sequence: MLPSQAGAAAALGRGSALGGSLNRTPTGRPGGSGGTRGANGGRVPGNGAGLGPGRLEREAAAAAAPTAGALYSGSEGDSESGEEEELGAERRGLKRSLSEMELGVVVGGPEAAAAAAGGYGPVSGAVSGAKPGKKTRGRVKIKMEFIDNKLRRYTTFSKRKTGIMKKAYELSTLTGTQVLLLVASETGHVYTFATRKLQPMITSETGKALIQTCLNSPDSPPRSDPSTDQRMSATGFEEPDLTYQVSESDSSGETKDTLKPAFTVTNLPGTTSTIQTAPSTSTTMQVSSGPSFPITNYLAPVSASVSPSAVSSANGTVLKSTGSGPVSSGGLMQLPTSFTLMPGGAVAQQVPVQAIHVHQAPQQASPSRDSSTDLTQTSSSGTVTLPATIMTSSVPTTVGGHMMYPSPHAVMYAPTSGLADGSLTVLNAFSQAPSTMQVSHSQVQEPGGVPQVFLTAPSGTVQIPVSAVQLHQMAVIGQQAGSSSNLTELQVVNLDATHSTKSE
Test: EMSA; supershift with SRF antibody; binds more avidly than CArG A and B; 10 mM Tris pH 7.5, 100 mM KCl, 50 mM NaCl, 1 mM EDTA, poly(dI-dC), room temp
Conditions: protein: synthetic; tags: endogenous SRF in rat aortic SMC nuclear extract, identified by SRF antibody supershift; chain copies: 2; label: 32P end label
Description: 6.1.4 Preparation of Nuclear Extracts, In Vitro Synthesis of SRF, and Electromobility Shift Assays Nuclear extracts were prepared from confluent rat aortic SMCs using the methods of Dignam (Dignam J D, et al., *Nucleic Acids Res.* 1983;11:1475–1489). Culture conditions matched those used for transient transfection assays. Oligonucleotides used in EMSAs were purchased commercially (Operon Technologies) and include the following: CArG A, 5'-[…]-3' (SEQ ID NO:14); CArG B, 5'-[…]-3' (SEQ ID NO:15); Intronic CArG, 5'-[…]-3' (SEQ ID NO:16). Probes were ^32P end labeled and annealed. All probes were purified on a 6% acrylamide gel, eluted in TE, and precipitated twice in ethanol.
EMSAs were performed with 20 µl of binding reaction that included=30 pg of labeled probe, 5 µg of SMC nuclear extract 0.2 to 0.6 µg of poly (dI-dC) in 1×binding buffer (10 mM TrisHCl (pH 7.5), 100 mM KCI, 50 mM NaCl, 1 mM dithiothreitol, 1 mM EDTA, and 5% glycerol). Following a 30 min incubation at room temperature, the samples were subjected to electrophoresis on a 5% polyacrylamide gel, which had been pre-run at 170V for 1 hr. Electrophoresis was performed at 170V in 0.5×TBE (45 mM Tris Borate, 1 mM EDTA). Gels were dried and exposed to film for 24–72 h at −70 ° C. […]

B1: Intronic CArG (SM alpha-actin first intron) (dsDNA)
DNA 1: TTTTACCTAATTAGGAAATG
DNA 2: CATTTCCTAATTAGGTAAAA
B1: binds.
